Test results from publication PMC10715038 (2023).

B1: horse ACE2 extracellular domain, human IgG1 Fc fusion protein (Fc fusion)
chain: QSTTEDLAKTFLEKFNSEAEELSHQSSLASWSYNTNITDENVQKMNEAGARWSAFYEEQCKLAKTYPLEEIQNLTVKRQLQALQQSGSSVLSADKSKLNEILNTMSTIYSTGKVCNPSNPQECLLLEPGLDAIMENSKDYNQRLWAWEGWRSEVGKQLRPLYEEYVVLKNEMARANNYEDYGDYWRGDYEAEGPSGYDYSRDQLIEDVERTFAEIKPLYEHLHAYVRAKLMDTYPSHINPTGCLPAHLLGDMWGRFWTNLYSLTVPFGQKPNIDVTDAMVDQSWDAKRIFEEAEKFFVSVGLPNMTQGFWENSMLTEPGDGRKVVCHPTAWDLGKGDFRIKMCTKVTMDDFLTAHHEMGHIQYDMAYAVQPYLLRNGANEGFHEAVGEIMSLSAATPNHLKAIGLLPPDFYEDSETEINFLLKQALTIVGTLPFTYMLEKWRWMVFKGEIPKEEWMKKWWEMKREIVGVVEPVPHDETYCDPAALFHVANDYSFIRYYTRTIYQFQFQEALCQTAKHEGPLHKCDISNSTEAGQKLLQMLSLGKSEPWTLALERIVGVKNMDVRPLLNYFEPLFTWLKDQNKNSFVGWSTNWSPYADQSIKVRISLKSALGEKSYEWNDNEMYLFQSSVAYAMRVYFLKAKNQTILFGEEDVWVSDLKPRISFNFFVTSPKNASDIIPRTDVEEAIRMSRSRINDAFRLDDNTLEFLGIQPTLGPPYQPPVTV
B2: cat ACE2 extracellular domain, human IgG1 Fc fusion protein (Fc fusion)
chain: QSTTEELAKTFLEKFNHEAEELSYQSSLASWNYNTNITDENVQKMNEAGAKWSAFYEEQSKLAKTYPLAEIHNTTVKRQLQALQQSGSSVLSADKSQRLNTILNAMSTIYSTGKACNPNNPQECLLLEPGLDDIMENSKDYNERLWAWEGWRAEVGKQLRPLYEEYVALKNEMARANNYEDYGDYWRGDYEEEWTDGYNYSRSQLIKDVEHTFTQIKPLYQHLHAYVRAKLMDTYPSRISPTGCLPAHLLGDMWGRFWTNLYPLTVPFGQKPNIDVTDAMVNQSWDARRIFKEAEKFFVSVGLPNMTQGFWENSMLTEPGDSRKVVCHPTAWDLGKGDFRIKMCTKVTMDDFLTAHHEMGHIQYDMAYAVQPFLLRNGANEGFHEAVGEIMSLSAATPNHLKTIGLLSPGFSEDSETEINFLLKQALTIVGTLPFTYMLEKWRWMVFKGEIPKEQWMQKWWEMKREIVGVVEPVPHDETYCDPASLFHVANDYSFIRYYTRTIYQFQFQEALCRIAKHEGPLHKCDISNSSEAGKKLLQMLTLGKSKPWTLALEHVVGEKKMNVTPLLKYFEPLFTWLKEQNRNSFVGWNTDWRPYADQSIKVRISLKSALGDEAYEWNDNEMYLFRSSVAYAMREYFSKVKNQTIPFVEDNVWVSNLKPRISFNFFVTASKNVSDVIPRSEVEEAIRMSRSRINDAFRLDDNSLEFLGIQPTLSPPYQPPVT

Molecular target: SARS-CoV-2 WHU01 RBD, monomeric (SARS-CoV-2 (WHU01), UniProt P0DTC2)
Assay: SPR

Binder | Kd [nM]
B1 | 89.8
B2 | 554
